# The supplement of paper PMC10567573
# ± gives the standard deviation.
# Assay: protein stability index of a GFP-peptide fusion (GPS, HEK-293T) (PSI 1-6); higher = more stable
# [1] = treatment: DMSO, c terminus: a fixed tail appended
# [2] = treatment: MLN4924 1 uM, 8 h, c terminus: a fixed tail appended
# 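Also: 24-mer peptide tiles fused after GFP, lentivirally expressed, FACS-sorted into six equal bins by GFP/DsRed ratio, decoded by Illumina sequencing, PSI is the read-weighted mean bin number.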
Sequence,protein stability index [1],protein stability index [2],"protein stability index (treatment: DMSO, c terminus: native)","protein stability index (treatment: MLN4924 1 uM, 8 h, c terminus: native)"
SQFLKLKTSVEKANAQIQILTRSW [CD207],2.19 ± 0.59,2.09 ± 0.29,–,–
SRLLGSASPSSSVRLGSFRSPRAG [PRPH],4.08 ± 0.19,3.96 ± 0.18,–,–
SRNFGVRNQGNFSVVGTVLAATQA [ZC2HC1C],2.96 ± 0.19,3.16 ± 0.12,–,–
SRVAHIERTRKPYNNDIDYYAKRN [GALNT9],3.77 ± 0.37,3.91 ± 0.33,–,–
SSETPIEGKNMSFVNDLTVTQDGR [APMAP],4.96 ± 0.34,4.87 ± 0.25,–,–
SSFIKTEPSSPASLTDSVNHHSPG [ESRRG],4.79 ± 0.17,4.9 ± 0.18,–,–
SSFTWSVPSSGYGAVTASKHSNSP [SMTNL2],3.82 ± 0.26,3.87 ± 0.095,–,–
SSGRSCRNERSIQEKLQVLMAEGL [SMG5],2.64 ± 0.39,2.88 ± 0.12,–,–
SSRVPVGGGPEATLSISDVRTLSE [ZBTB22],4.49 ± 0.11,4.57 ± 0.38,–,–
SSSQEIPTMPQPIEKVSVSTQTKK [ZMYND11],5.33 ± 0.42,5.37 ± 0.23,–,–
SSSSGRLSEPDPSHTLEERVVHWY [SMOC2],3.14 ± 0.38,3.1 ± 0.22,–,–
STETLVHVSDEDNNADLCLTDDKQ [DLC1],5.59 ± 0.36,5.59 ± 0.38,–,–
STFHTISPSFQLKAAALPPFPLGA [PLAGL1],2.48 ± 0.46,2.64 ± 0.16,–,–
STFRTPAVLFTGIVALYIASGLTG [ATL3],3.09 ± 0.38,3.19 ± 0.24,–,–
STGEAGTDGDHNVYPRPPEPREFS [ZC2HC1C],5.03 ± 0.19,5.03 ± 0.16,–,–
STKAIPEKYGAVREVILKELAEAT [ZBED1],3.88 ± 0.32,4.08 ± 0.35,–,–
STPSDNIVRRFLNICENTEGAIAV [CDC14A],3.66 ± 0.39,3.66 ± 0.14,–,–
SVCSCTCYRSQDYGGRSVAPQNSF [KCNK9],2.44 ± 0.23,2.64 ± 0.43,–,–
SVVRRCVKVLAGQEYAAKIINTKK [CAMK2A],2.72 ± 0.35,2.52 ± 0.5,–,–
SWEVVTSMGTQRCDAGVCVLREK [KLHL12],–,–,2.89 ± 0.46,3.17 ± 0.41
SWSDNERSSSRINIPERASGPEGN [FAM104B],4.79 ± 0.11,4.73 ± 0.32,–,–
SYLREQMLNEPLVREIVKECSNIP [GAN],3.21 ± 0.19,3.39 ± 0.45,–,–

Sequence,protein stability index [1],protein stability index [2],"protein stability index (treatment: DMSO, c terminus: native)","protein stability index (treatment: MLN4924 1 uM, 8 h, c terminus: native)"
SYNACGVLSHIMFDGPEAWGVCEP [ZER1],2.13 ± 0.45,2.44 ± 0.41,–,–
TALALEPDAIRSRSNTLRERSQVR [PCDHGC5],4.64 ± 0.14,4.69 ± 0.18,–,–
TCCESTQRSVSDVASGSTPAPALC [IRX6],4.48 ± 0.067,4.51 ± 0.11,–,–
TCSECGKGFIQKGNLNIHQRTHTG [ZNF649],3.24 ± 0.2,3.26 ± 0.25,–,–
TCVNLLLEASNYQMMPYMQPVMQS [KLHL13],3.06 ± 0.41,2.98 ± 0.36,–,–
TDIELEIYGMEGIPEKDMDERRRL [ZNF207],4.77 ± 0.097,4.86 ± 0.22,–,–
TDRSHIYTFTDTFTEKLWPLFYPG [TRIM39],2.16 ± 0.47,2.15 ± 0.56,–,–
TEKTTTVLSESSGPSNTSHSSSRD [C2CD2L],5.42 ± 0.15,5.31 ± 0.25,–,–
TEPEQRELKTKLTKLEAEIVTLRH [TPD52L3],4.23 ± 0.15,4.35 ± 0.26,–,–
TEQSSASRLMRRHKRRRRKQKVSR [DVL3],5.13 ± 0.24,5.16 ± 0.22,–,–
TFFPVALKKHGPICQKTATKKRKT [ZC2HC1A],3.24 ± 0.3,3.32 ± 0.3,–,–
TFHEGKHNISHMSMDIARGLMVTC [WDFY1],2.49 ± 0.63,2.04 ± 0.14,–,–
THFNTAQGFRTVLELVINYQQLCI [OAS1],3.26 ± 0.87,2.76 ± 0.37,–,–
THSPQKSHQCAHCEKTFNRKDHLK [PLAGL1],3.97 ± 0.16,4.05 ± 0.28,–,–
TINPLWHIRHLGWNPDARYSEHFL [GLT8D2],2.39 ± 0.22,2.32 ± 0.24,–,–
TITTAAATSVTVPGAGVPSGSGGT [ZBTB22],4.9 ± 0.19,4.85 ± 0.26,–,–
TIYGLHALEQGGLRAATMSAVEAA [PYCR3],2.85 ± 0.65,3.22 ± 0.8,–,–
TKEKKHQCDHCERCFYTRKDVRRH [PLAGL1],3.69 ± 0.48,4.2 ± 0.5,–,–
TLEFENVQVLTMGNDTSPSEGTNL [HNF4A],4.69 ± 0.18,4.52 ± 0.39,–,–
TLLGNPKKRMRYFDPLRNEYFFDR [KCNA1],2.27 ± 0.29,2.3 ± 0.057,–,–
TLLPASLFVNSHPGIDRPGMLCSF [DCAF4],2.31 ± 0.36,2.2 ± 0.22,–,–
TLNSIWNVEDHINPKLPNISLDVL [POMT2],2.31 ± 0.092,2.48 ± 0.17,–,–
